{
  "source": "paper PMC6420462",
  "molecular_target": "T1, GluK5-WT (kainate receptor subunit GluK5) (UniProt Q16478)",
  "T1 sequence": "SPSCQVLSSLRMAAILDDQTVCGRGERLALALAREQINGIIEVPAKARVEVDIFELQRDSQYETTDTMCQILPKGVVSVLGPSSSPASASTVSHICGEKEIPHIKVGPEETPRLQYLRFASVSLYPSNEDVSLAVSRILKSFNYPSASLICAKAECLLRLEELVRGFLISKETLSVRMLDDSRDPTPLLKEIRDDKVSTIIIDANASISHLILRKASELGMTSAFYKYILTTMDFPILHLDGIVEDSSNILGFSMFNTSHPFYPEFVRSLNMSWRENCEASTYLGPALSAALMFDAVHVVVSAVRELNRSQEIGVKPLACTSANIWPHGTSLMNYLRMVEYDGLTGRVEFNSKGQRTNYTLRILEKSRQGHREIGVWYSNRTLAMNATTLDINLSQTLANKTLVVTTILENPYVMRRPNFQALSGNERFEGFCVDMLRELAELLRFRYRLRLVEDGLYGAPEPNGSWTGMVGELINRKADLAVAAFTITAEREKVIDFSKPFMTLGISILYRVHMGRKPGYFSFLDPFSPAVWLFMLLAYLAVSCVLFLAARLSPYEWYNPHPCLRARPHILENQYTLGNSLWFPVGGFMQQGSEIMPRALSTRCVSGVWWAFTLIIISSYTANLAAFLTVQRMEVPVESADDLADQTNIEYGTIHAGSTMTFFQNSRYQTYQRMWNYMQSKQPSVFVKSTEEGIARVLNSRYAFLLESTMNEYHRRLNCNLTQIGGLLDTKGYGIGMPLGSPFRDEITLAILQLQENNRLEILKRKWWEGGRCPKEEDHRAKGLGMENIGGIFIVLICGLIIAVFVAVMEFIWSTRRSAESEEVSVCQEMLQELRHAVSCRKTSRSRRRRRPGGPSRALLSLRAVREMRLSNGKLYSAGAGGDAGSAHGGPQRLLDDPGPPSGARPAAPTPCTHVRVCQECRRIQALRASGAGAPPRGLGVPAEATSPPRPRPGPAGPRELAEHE",
  "data": [
    {"substance": "GluK2-A487L (from UniProt Q13002 32-908) (receptor)", "values": [
      {"measurement": "cell surface (biotinylated) GluK2-A487L, % of total, on co-expression with GluK5-WT in HEK293 cells", "result": 14, "unit": "%"},
      {"measurement": "cell surface (biotinylated) GluK5, % of total, on co-expression with GluK2-A487L in HEK293 cells (GluK5 alone not detectable on the surface)", "result": 14, "unit": "%"},
      {"measurement": "increase in cell surface GluK2-A487L on co-expression with GluK5-WT against the homomeric subunit", "result": 5, "unit": "fold"}
    ]},
    {"substance": "GluK2-A487T (from UniProt Q13002 32-908) (receptor)", "values": [
      {"measurement": "cell surface (biotinylated) GluK2-A487T, % of total, on co-expression with GluK5-WT in HEK293 cells", "result": 18, "unit": "%"},
      {"measurement": "cell surface (biotinylated) GluK5, % of total, on co-expression with GluK2-A487T in HEK293 cells (GluK5 alone not detectable on the surface)", "result": 20, "unit": "%"}
    ]},
    {"substance": "GluK2-S689N/N690S (from UniProt Q13002 32-908) (receptor)", "values": [
      {"measurement": "cell surface (biotinylated) GluK2-S689N/N690S, % of total, on co-expression with GluK5-WT in HEK293 cells", "result": 12, "unit": "%"},
      {"measurement": "cell surface (biotinylated) GluK5, % of total, on co-expression with GluK2-S689N/N690S in HEK293 cells (GluK5 alone not detectable on the surface)", "result": 10, "unit": "%"}
    ]},
    {"substance": "GluK2-T659V (from UniProt Q13002 32-908) (receptor)", "values": [
      {"measurement": "cell surface (biotinylated) GluK2-T659V, % of total, on co-expression with GluK5-WT in HEK293 cells", "result": 28, "unit": "%"},
      {"measurement": "cell surface (biotinylated) GluK5, % of total, on co-expression with GluK2-T659V in HEK293 cells (GluK5 alone not detectable on the surface)", "result": 26, "unit": "%"},
      {"measurement": "increase in cell surface GluK2-T659V on co-expression with GluK5-WT against the homomeric subunit", "result": 7, "unit": "fold"}
    ]},
    {"substance": "GluK2-WT (human GluK2a(Q) kainate receptor subunit) (from UniProt Q13002 32-908)", "values": [
      {"measurement": "cell surface (biotinylated) GluK2, % of total, on co-expression with GluK5-WT in HEK293 cells", "result": 28, "unit": "%"},
      {"measurement": "cell surface (biotinylated) GluK5, % of total, on co-expression with GluK2-WT in HEK293 cells (GluK5 alone not detectable on the surface)", "result": 27, "unit": "%"}
    ]}
  ]
}
